# T1: human FcγRIIaH extracellular domain with C-terminal His-tag (human, UniProt P12318 34-217)
# T1 construct: also called human FcgRIIaH; FcγRIIa (type H)
# T1 sequence: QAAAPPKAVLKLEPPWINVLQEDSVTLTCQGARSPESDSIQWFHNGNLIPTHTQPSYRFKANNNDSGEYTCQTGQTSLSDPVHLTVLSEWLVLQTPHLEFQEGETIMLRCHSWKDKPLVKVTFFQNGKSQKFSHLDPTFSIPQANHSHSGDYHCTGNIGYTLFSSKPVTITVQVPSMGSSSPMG
# Target: T1, human FcγRIIaH extracellular domain …
# Experiment: SPR (BIACORE); KD of SG1 / KD of variant;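 also: relative to parent M103205H795-SG1 carrying the SG1 human heavy chain constant region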
row,KD fold (SG1 = 1),Binder
1,1.2 fold,"M103205H795-MY209/M103202L889-SK1 (antibody, human IgG1, kappa, Substitutions introduced into M103205H795-SG1, expressed with M103202L889-SK1 as light chain; EU numbering) heavy: QVTLKESGPVLVKPTETLTLTCTVSGIDLSHDDISWVRQAPGKGLEWVGIISYAGSTYYASWAKGRLTISKDTSKNQVVLTMTNMDPVDTATYYCARGVPAYSHGGDLWGQGTLVTVSSASTKGPSVFPLAPSSKSTSGGTAALGCLVKDYFPEPVTVSWNSGALTSGVHTFPAVLQSSGLYSLSSVVTVPSSSLGTQTYICNVNHKPSNTKVDKKVEPKSCDKTHTCPPCPAPELLNGPSVFLFPPKPKDTLMISRTPEVTCVVVDVSDEDPEVKFNWYVDGVEVHNAKTKPREELYNSTYRVVSVLTVLHQDWLNGKEYKCKVSNTALPKPIEKTISKAKGQPREPQVYTLPPSREEMTKNQVSLTCLVKGFYPSDIAVEWESNGQPENNYKTTPPVLDSDGSFFLYSKLTVDKSRWQQGNVFSCSVMHEALHNHYTQKSLSLSP light: DIVMTQSPATLSLSPGERATLSCTSSQSVYHANWLSWFQQKPGQPPKLLIYWASTLAYGVPSRFSGSGSGTDFTLTISSLQPEDAATYYCAGGYGGGRYAFGQGTKVEIKRTVAAPSVFIFPPSDEQLKSGTASVVCLLNNFYPREAKVQWKVDNALQSGNSQESVTEQDSKDSTYSLSSTLTLSKADYEKHKVYACEVTHQGLSSPVTKSFNRGEC"
2,4.9 fold,"M103205H795-MY283/M103202L889-SK1 (antibody, human IgG1, kappa, Substitutions introduced into M103205H795-SG1, expressed with M103202L889-SK1 as light chain; EU numbering) heavy: QVTLKESGPVLVKPTETLTLTCTVSGIDLSHDDISWVRQAPGKGLEWVGIISYAGSTYYASWAKGRLTISKDTSKNQVVLTMTNMDPVDTATYYCARGVPAYSHGGDLWGQGTLVTVSSASTKGPSVFPLAPSSKSTSGGTAALGCLVKDYFPEPVTVSWNSGALTSGVHTFPAVLQSSGLYSLSSVVTVPSSSLGTQTYICNVNHKPSNTKVDKKVEPKSCDKTHTCPPCPAPELLTGPSVFLFPPKPKDTLMISRTPEVTCVVVDVSDEDPEVKFNWYVDGVEVHNAKTKPREELYNSTYRVVSVLTVLHQDWLNGKEYKCKVSNKALPKPIEKTISKAKGQPREPQVYTLPPSREEMTKNQVSLTCLVKGFYPSDIAVEWESNGQPENNYKTTPPVLDSDGSFFLYSKLTVDKSRWQQGNVFSCSVMHEALHNHYTQKSLSLSP light: DIVMTQSPATLSLSPGERATLSCTSSQSVYHANWLSWFQQKPGQPPKLLIYWASTLAYGVPSRFSGSGSGTDFTLTISSLQPEDAATYYCAGGYGGGRYAFGQGTKVEIKRTVAAPSVFIFPPSDEQLKSGTASVVCLLNNFYPREAKVQWKVDNALQSGNSQESVTEQDSKDSTYSLSSTLTLSKADYEKHKVYACEVTHQGLSSPVTKSFNRGEC"
3,1.5 fold,"M103205H795-MY380/M103202L889-SK1 (antibody, human IgG1, kappa, Substitutions introduced into M103205H795-SG1, expressed with M103202L889-SK1 as light chain; EU numbering) heavy: QVTLKESGPVLVKPTETLTLTCTVSGIDLSHDDISWVRQAPGKGLEWVGIISYAGSTYYASWAKGRLTISKDTSKNQVVLTMTNMDPVDTATYYCARGVPAYSHGGDLWGQGTLVTVSSASTKGPSVFPLAPSSKSTSGGTAALGCLVKDYFPEPVTVSWNSGALTSGVHTFPAVLQSSGLYSLSSVVTVPSSSLGTQTYICNVNHKPSNTKVDKKVEPKSCDKTHTCPPCPAPELLNGPSVFLFPPKPKDTLMISRTPEVTCVVVDVSEEDPEVKFNWYVDGVEVHNAKTKPREEQYNSTYRVVSVLTVLHQDWLNGKEYKCKVSNKALPKPIEKTISKAKGQPREPQVYTLPPSREEMTKNQVSLTCLVKGFYPSDIAVEWESNGQPENNYKTTPKVLDSDGSFFLYSKLTVDKSRWQQGNVFSCSVMHEALHNHYTQKSLSLSP light: DIVMTQSPATLSLSPGERATLSCTSSQSVYHANWLSWFQQKPGQPPKLLIYWASTLAYGVPSRFSGSGSGTDFTLTISSLQPEDAATYYCAGGYGGGRYAFGQGTKVEIKRTVAAPSVFIFPPSDEQLKSGTASVVCLLNNFYPREAKVQWKVDNALQSGNSQESVTEQDSKDSTYSLSSTLTLSKADYEKHKVYACEVTHQGLSSPVTKSFNRGEC"
4,1.7 fold,"M103205H795-MY339/M103202L889-SK1 (antibody, human IgG1, kappa, Substitutions introduced into M103205H795-SG1, expressed with M103202L889-SK1 as light chain; EU numbering) heavy: QVTLKESGPVLVKPTETLTLTCTVSGIDLSHDDISWVRQAPGKGLEWVGIISYAGSTYYASWAKGRLTISKDTSKNQVVLTMTNMDPVDTATYYCARGVPAYSHGGDLWGQGTLVTVSSASTKGPSVFPLAPSSKSTSGGTAALGCLVKDYFPEPVTVSWNSGALTSGVHTFPAVLQSSGLYSLSSVVTVPSSSLGTQTYICNVNHKPSNTKVDKKVEPKSCDKTHTCPPCPAPELLLGPSVFLFPPKPKDTLMISRTPEVTCVVVDVSDEDPEVKFNWYVDGVEVHNAKTKPREEQYNSTYRVVSVLTVLHQDWLNGKEYKCKVSNTALPKPIEKTISKAKGQPREPQVYTLPPSREEMTKNQVSLTCLVKGFYPSDIAVEWESNGQPENNYKTTPKVLDSDGSFFLYSKLTVDKSRWQQGNVFSCSVMHEALHNHYTQKSLSLSP light: DIVMTQSPATLSLSPGERATLSCTSSQSVYHANWLSWFQQKPGQPPKLLIYWASTLAYGVPSRFSGSGSGTDFTLTISSLQPEDAATYYCAGGYGGGRYAFGQGTKVEIKRTVAAPSVFIFPPSDEQLKSGTASVVCLLNNFYPREAKVQWKVDNALQSGNSQESVTEQDSKDSTYSLSSTLTLSKADYEKHKVYACEVTHQGLSSPVTKSFNRGEC"
5,0.9 fold,"M103205H795-MY386/M103202L889-SK1 (antibody, human IgG1, kappa, Substitutions introduced into M103205H795-SG1, expressed with M103202L889-SK1 as light chain; EU numbering) heavy: QVTLKESGPVLVKPTETLTLTCTVSGIDLSHDDISWVRQAPGKGLEWVGIISYAGSTYYASWAKGRLTISKDTSKNQVVLTMTNMDPVDTATYYCARGVPAYSHGGDLWGQGTLVTVSSASTKGPSVFPLAPSSKSTSGGTAALGCLVKDYFPEPVTVSWNSGALTSGVHTFPAVLQSSGLYSLSSVVTVPSSSLGTQTYICNVNHKPSNTKVDKKVEPKSCDKTHTCPPCPAPELLLGPSVFLFPPKPKDTLMISRTPEVTCVVVDVSDEDPEVKFNWYVDGVEVHNAKTKPREELYNSTYRVVSVLTVLHQDWLNGKEYKCKVSNTALPKPIEKTISKAKGQPREPQVYTLPPSREEMTKNQVSLTCLVKGFYPSDIAVEWESNGQPENNYKTTPPVLDSDGSFFLYSKLTVDKSRWQQGNVFSCSVMHEALHNHYTQKSLSLSP light: DIVMTQSPATLSLSPGERATLSCTSSQSVYHANWLSWFQQKPGQPPKLLIYWASTLAYGVPSRFSGSGSGTDFTLTISSLQPEDAATYYCAGGYGGGRYAFGQGTKVEIKRTVAAPSVFIFPPSDEQLKSGTASVVCLLNNFYPREAKVQWKVDNALQSGNSQESVTEQDSKDSTYSLSSTLTLSKADYEKHKVYACEVTHQGLSSPVTKSFNRGEC"
6,1.9 fold,"M103205H795-MY342/M103202L889-SK1 (antibody, human IgG1, kappa, Substitutions introduced into M103205H795-SG1, expressed with M103202L889-SK1 as light chain; EU numbering) heavy: QVTLKESGPVLVKPTETLTLTCTVSGIDLSHDDISWVRQAPGKGLEWVGIISYAGSTYYASWAKGRLTISKDTSKNQVVLTMTNMDPVDTATYYCARGVPAYSHGGDLWGQGTLVTVSSASTKGPSVFPLAPSSKSTSGGTAALGCLVKDYFPEPVTVSWNSGALTSGVHTFPAVLQSSGLYSLSSVVTVPSSSLGTQTYICNVNHKPSNTKVDKKVEPKSCDKTHTCPPCPAPELLLGPSVFLFPPKPKDTLMISRTPEVTCVVVDVSDEDPEVKFNWYVDGVEVHNAKTKPREELYNSTYRVVSVLTVLHQDWLNGKEYKCKVSNKALPKPIEKTISKAKGQPREPQVYTLPPSREEMTKNQVSLTCLVKGFYPSDIAVEWESNGQPENNYKTTPMVLDSDGSFFLYSKLTVDKSRWQQGNVFSCSVMHEALHNHYTQKSLSLSP light: DIVMTQSPATLSLSPGERATLSCTSSQSVYHANWLSWFQQKPGQPPKLLIYWASTLAYGVPSRFSGSGSGTDFTLTISSLQPEDAATYYCAGGYGGGRYAFGQGTKVEIKRTVAAPSVFIFPPSDEQLKSGTASVVCLLNNFYPREAKVQWKVDNALQSGNSQESVTEQDSKDSTYSLSSTLTLSKADYEKHKVYACEVTHQGLSSPVTKSFNRGEC"
7,2.2 fold,"M103205H795-MY340/M103202L889-SK1 (antibody, human IgG1, kappa, Substitutions introduced into M103205H795-SG1, expressed with M103202L889-SK1 as light chain; EU numbering) heavy: QVTLKESGPVLVKPTETLTLTCTVSGIDLSHDDISWVRQAPGKGLEWVGIISYAGSTYYASWAKGRLTISKDTSKNQVVLTMTNMDPVDTATYYCARGVPAYSHGGDLWGQGTLVTVSSASTKGPSVFPLAPSSKSTSGGTAALGCLVKDYFPEPVTVSWNSGALTSGVHTFPAVLQSSGLYSLSSVVTVPSSSLGTQTYICNVNHKPSNTKVDKKVEPKSCDKTHTCPPCPAPELLLGPSVFLFPPKPKDTLMISRTPEVTCVVVDVSDEDPEVKFNWYVDGVEVHNAKTKPREELYNSTYRVVSVLTVLHQDWLNGKEYKCKVSNKALPKPIEKTISKAKGQPREPQVYTLPPSREEMTKNQVSLTCLVKGFYPSDIAVEWESNGQPENNYKTTPKVLDSDGSFFLYSKLTVDKSRWQQGNVFSCSVMHEALHNHYTQKSLSLSP light: DIVMTQSPATLSLSPGERATLSCTSSQSVYHANWLSWFQQKPGQPPKLLIYWASTLAYGVPSRFSGSGSGTDFTLTISSLQPEDAATYYCAGGYGGGRYAFGQGTKVEIKRTVAAPSVFIFPPSDEQLKSGTASVVCLLNNFYPREAKVQWKVDNALQSGNSQESVTEQDSKDSTYSLSSTLTLSKADYEKHKVYACEVTHQGLSSPVTKSFNRGEC"
8,2.7 fold,"M103205H795-MY341/M103202L889-SK1 (antibody, human IgG1, kappa, Substitutions introduced into M103205H795-SG1, expressed with M103202L889-SK1 as light chain; EU numbering) heavy: QVTLKESGPVLVKPTETLTLTCTVSGIDLSHDDISWVRQAPGKGLEWVGIISYAGSTYYASWAKGRLTISKDTSKNQVVLTMTNMDPVDTATYYCARGVPAYSHGGDLWGQGTLVTVSSASTKGPSVFPLAPSSKSTSGGTAALGCLVKDYFPEPVTVSWNSGALTSGVHTFPAVLQSSGLYSLSSVVTVPSSSLGTQTYICNVNHKPSNTKVDKKVEPKSCDKTHTCPPCPAPELLLGPSVFLFPPKPKDTLMISRTPEVTCVVVDVSDEDPEVKFNWYVDGVEVHNAKTKPREELYNSTYRVVSVLTVLHQDWLNGKEYKCKVSNTALPKPIEKTISKAKGQPREPQVYTLPPSREEMTKNQVSLTCLVKGFYPSDIAVEWESNGQPENNYKTTPKVLDSDGSFFLYSKLTVDKSRWQQGNVFSCSVMHEALHNHYTQKSLSLSP light: DIVMTQSPATLSLSPGERATLSCTSSQSVYHANWLSWFQQKPGQPPKLLIYWASTLAYGVPSRFSGSGSGTDFTLTISSLQPEDAATYYCAGGYGGGRYAFGQGTKVEIKRTVAAPSVFIFPPSDEQLKSGTASVVCLLNNFYPREAKVQWKVDNALQSGNSQESVTEQDSKDSTYSLSSTLTLSKADYEKHKVYACEVTHQGLSSPVTKSFNRGEC"
